Results on 13 molecules are retold here after patent publication US20220195023A1.

Positions count from the first letter of the chain named.

B1: AB-007033 (antibody, V domains shown)
VH: QMQLVESGGGVVQPGRSLRLSCAASGFTFSTYAMHWVRQAPGQGLEWVAVISYHSTNKYYADSVRGRFTISRDNSKNTLYLQMNSLRAEDTAVYYCARDGYSSSFFDFWGQGTLVTVSS
VL: DIQMTQSPSTLSASVGDRVTITCRASQSISRWLAWYQQQPGKAPKLLMSGASVLESGVPSRFSGSGSGTEFTLTISSLQPDDFATYYCQHYNSYFVTFGQGTKVEIK
B2: AB-007043 (antibody, V domains shown)
VH: B1 VH with A23T, A40S, E46Q, A61E
VL: B1 VL with T20A, S56D
B3: AB-007034 (antibody, V domains shown)
VH: B1 VH with M2V
VL: B1 VL with M48I
B4: AB-007039 (antibody, V domains shown)
VH: B1 VH with A23T, A40S, E46Q, A61E
VL: B1 VL with T20A, F95S
B5: AB-007041 (antibody, V domains shown)
VH: B1 VH with A23T, T31D, A40S, E46Q, A61E
VL: B1 VL with T20A
B6: AB-007038 (antibody, V domains shown)
VH: B1 VH with A23T, A40S, E46Q, A61E, F108Y
VL: B1 VL with T20A
B7: AB-007044 (antibody, V domains shown)
VH: B1 VH with A23T, A40S, E46Q, A61E, D62E
VL: B1 VL with T20A
B8: AB-007042 (antibody, V domains shown)
VH: B1 VH with A23T, A40S, E46Q, A61E
VL: B1 VL with T20A, S28D
B9: AB-007035 (antibody, V domains shown)
VH: B1 VH with A23T, T31S, A40S, E46Q, A61E
VL: B1 VL with T20A
B10: AB-007046 (antibody, V domains shown)
VH: B1 VH with A23T, A40S, E46Q, A61E
VL: B1 VL with T20A, N92Y
B11: AB-007036 (antibody, V domains shown)
VH: B1 VH with A23T, A40S, E46Q, H54D, A61E
VL: B1 VL with T20A
B12: AB-007037 (antibody, V domains shown)
VH: B1 VH with A23T, A40S, E46Q, A61E, R65K
VL: B1 VL with T20A
B13: AB-007040 (antibody, V domains shown)
VH: B1 VH with A23T, A40S, E46Q, A61E
VL: B1 VL with T20A, F95Y

The first test has as its target (NANP)6 (Plasmodium falciparum). Put plainly: SPR, antibody on chip.
A word on the Kd: it is the equilibrium constant for the complex coming apart. For B1, the Kd was 0.0631 nM.

B2 yielded a Kd of 1.11 nM. Compared with the last molecule, the Kd is about 18-fold higher.

The molecule B3 displayed a Kd of 0.932 nM.

On to B4, for which the Kd was 0.143 nM.

As to B5, the Kd came to 0.246 nM.

B6 registered a Kd of 0.0281 nM.

Molecule B7 showed a Kd of 0.139 nM.

The molecule B8 gave a Kd of 0.998 nM. Against the preceding molecule, the Kd is about 7.2-fold higher.

Take B9: the Kd came out at 0.757 nM.

As for B10, the Kd amounted to 1.27 nM.

As for B11, the Kd is 0.0466 nM.

Molecule B12 returned a Kd of 1.73 nM. Against the preceding molecule, the Kd is about 37-fold higher.

The molecule B13 returned a Kd of 0.344 nM.

For a further test, the target named is … (Plasmodium falciparum). Put plainly: SPR, antibody on chip. A general note: SPR reads the build-up and loss of mass on a sensor chip optically.
B1 registered a Kd of 2.58 µM.

B2 had a Kd of 16.3 µM.

For B3, the Kd turned out to be 24.1 µM.

Molecule B4 yielded a Kd of 14.7 µM. This Kd lies about 1.6-fold lower than the previous one.

B5 displayed a Kd of 2.52 µM. This Kd lies about 5.8-fold lower than the previous one.

B6 registered a dissociation constant (Kd) of 13.1 µM.

Regarding B7, the Kd was determined as 12.7 µM.

Molecule B8 yielded a Kd of 11.7 µM.

Turning to B9, the Kd was 9.75 µM.

B10 yielded a Kd of 11.6 µM.

As to B11, the Kd came to 17.5 µM.

On to B12, for which the Kd came out at 2.24 µM.

Turning to B13, the Kd was determined as 3.73 µM.

For a further test, the target named is (NPNA)3 (Plasmodium falciparum). Put plainly: SPR, antibody on chip.
Molecule B1 showed a Kd of 8.02 nM.

Molecule B2 yielded a Kd of 7.51 nM.

The molecule B3 showed a Kd of 17 nM.

As for B4, the Kd was 112 nM.

For the molecule B5, the Kd was determined as 5.64 nM.

B6 showed a Kd of 8.97 nM. This Kd is about 1.6-fold higher than that of the molecule before.

Turning to B7, the Kd came out at 7.96 nM.

Molecule B8 gave a Kd of 7.04 nM.

For B9, the Kd was 5.73 nM.

In turn, B10 showed a Kd of 10.3 nM.

Take B11: the Kd was found to be 33.5 nM.

Turning to B12, the Kd was determined as 7.14 nM. Against the preceding molecule, the Kd is about 4.7-fold lower.

In turn, B13 yielded a Kd of 9.5 nM. The Kd values of the last two molecules are within 1.5-fold of each other.

The target of a further test is (NVDP)3(NANP)2 (Plasmodium falciparum). Put plainly: SPR, antibody on chip.
In turn, B1 showed a Kd of 2680 nM.

Take B2: the Kd turned out to be 2590 nM.

In turn, B3 came in with a Kd of 6710 nM. Against the preceding molecule, the Kd is about 2.6-fold higher.

Regarding B4, the Kd turned out to be 8250 nM. The Kd values of the last two molecules are within 1.5-fold of each other.

With B5, the Kd stood at 3930 nM.

B6 registered a Kd of 3060 nM.

Turning to B7, the Kd is 2240 nM.

For the molecule B8, the Kd was 2310 nM. This Kd and that of the molecule before are within 1.5-fold of each other.

The molecule B9 returned a Kd of 2690 nM.

Turning to B10, the Kd came to 2810 nM. This Kd and that of the molecule before are within 1.5-fold of each other.

On to B11, for which the Kd was 16700 nM.

On to B12, for which the dissociation constant Kd was 2690 nM.

Molecule B13 had a Kd of 3110 nM.

In another test the target is (NANP)6 (Plasmodium falciparum). Put plainly: BLI, target on sensor. On the technique in general: In BLI a coated tip is dipped into the sample, and binding shifts an interference pattern.
In the case of B1, the Kd was 0.303 nM. This counts as sub-nanomolar.

For the molecule B2, the Kd stood at 0.293 nM. This Kd and that of the molecule before are within 1.5-fold of each other.

B3 registered a Kd of 0.0899 nM. Against the preceding molecule, the Kd is about 3.3-fold lower.

B4 registered a Kd of 1.19 nM. This Kd lies about 13-fold higher than the previous one.

In turn, B5 yielded a Kd of 0.47 nM.

Molecule B6 registered a Kd of 1.34 nM.

In turn, B7 had a Kd of 0.85 nM.

Consider B8, for which the Kd came out at 0.0276 nM.

For B9, the Kd amounted to 0.927 nM.

The molecule B10 returned a Kd of 2.58 nM.

B11 displayed a Kd of 0.226 nM.

Regarding B12, the Kd was determined as 0.384 nM. This Kd is about 1.7-fold higher than that of the molecule before.

Turning to B13, the Kd was found to be 0.56 nM.

For another test, the target named is … (Plasmodium falciparum). Put plainly: BLI, target on sensor.
As to B1, the Kd was 2.62 nM. That is a single-digit nanomolar value.

The molecule B2 came in with a Kd of 4.87 nM. This Kd lies about 1.9-fold higher than the previous one.

As for B3, the Kd came out at 5.44 nM.

Turning to B4, the Kd was 7.97 nM.

On to B5, for which the Kd was found to be 5.57 nM.

The molecule B6 yielded a Kd of 3.81 nM. This Kd and that of the molecule before are within 1.5-fold of each other.

The molecule B7 displayed a Kd of 3.47 nM.

B8 showed a Kd of 2.99 nM. This Kd and that of the molecule before are within 1.5-fold of each other.

For the molecule B9, the Kd is 2.61 nM.

B10 returned a Kd of 9.15 nM.

B11: the Kd was 16.9 nM.

Molecule B12 returned a Kd of 2.47 nM.

In turn, B13 had a Kd of 4.17 nM.

The target in a further test is (NPNA)3 (Plasmodium falciparum). Put plainly: BLI, target on sensor.
Regarding B1, the Kd was found to be 0.154 nM.

For B2, the Kd came to 0.00341 nM.

Take B3: the Kd was 0.00372 nM.

As to B4, the Kd was 0.812 nM.

B5 had a Kd of 0.145 nM.

Turning to B6, the Kd was 0.544 nM.

B7 had a Kd of 0.239 nM.

On to B8, for which the Kd came to 0.00314 nM. Against the preceding molecule, the Kd is about 76-fold lower.

Regarding B9, the Kd was found to be 0.322 nM.

Molecule B10 showed a Kd of 1.57 nM.

In turn, B11 had a Kd of 0.00382 nM.

As for B12, the Kd is 0.0035 nM.

Turning to B13, the Kd came out at 0.337 nM.

A further test addresses NANPNVDP (Plasmodium falciparum). Put plainly: BLI, target on sensor.
Molecule B1 yielded a Kd of 8.08 nM.

As to B2, the dissociation constant Kd came to 10.4 nM.

On to B3, for which the Kd worked out at 11.5 nM.

For the molecule B4, the Kd came out at 15.3 nM. The Kd values of the last two molecules are within 1.5-fold of each other.

B5 gave a Kd of 12.1 nM.

On to B6, for which the Kd amounted to 10.9 nM.

As for B7, the Kd came out at 8.61 nM.

As to B8, the Kd was found to be 8.56 nM.

In turn, B9 returned a Kd of 9.28 nM.

For B10, the Kd turned out to be 11.1 nM.

In turn, B11 had a Kd of 29.6 nM.

As to B12, the dissociation constant (Kd) amounted to 8.41 nM. Compared with the last molecule, the Kd is about 3.5-fold lower.

For B13, the Kd worked out at 9.56 nM.

The next test deals with (NVDP)3(NANP)2 (Plasmodium falciparum). Put plainly: BLI, target on sensor.
Take B1: the Kd was 3.47 nM. This counts as single-digit nanomolar.

In turn, B2 yielded a Kd of 5.2 nM.

Consider B3, for which the Kd amounted to 6.14 nM. The Kd values of the last two molecules are within 1.5-fold of each other.

In turn, B4 had a Kd of 7.26 nM.

As for B5, the Kd is 6.65 nM.

In the case of B6, the Kd was 5.82 nM.

In turn, B7 yielded a Kd of 5.99 nM.

In turn, B8 came in with a Kd of 3.9 nM.

In turn, B9 showed a Kd of 5.09 nM.

Consider B10, for which the Kd came to 11.6 nM.

B11 yielded a Kd of 17.4 nM.

Take B12: the Kd was 4.44 nM.

In the case of B13, the Kd came to 4.67 nM.
